Biological target: specific antigen (aa 245-258 of the GCN4 leucine zipper) fused to LexA (yeast)
Experiment: yeast two hybrid, LacZ reporter, bait LexA-GCN4 leucine zipper; Empty Vector is printed as 0.18

“Gal4 AD-AL5 scFv fusion (ampicillin-binding control scFv AL5) (from UniProt P04386 768-881)” was tested, and the Rel. β-gal. activity % was 0.19%.

Source: patent US20010024831A1
